Starred links: 1 amine or outer side, 2 acyl side, 3 side chain; linkers in the order of their positions; H or OH if unused. Non-standard residues stand in square brackets, D forms with d. Tyr(Me) = Omtyr, O-methyl-L-tyrosine, COc1ccc(C[C@H](N[*:1])C(=O)[*:2])cc1; Phe(4-tBu) = CC(C)(C)c1ccc(C[C@H](N)C(=O)O)cc1; Phe(4-NH2) = Nc1ccc(C[C@H](N)C(=O)O)cc1; Phe(4-F) = N[C@@H](Cc1ccc(F)cc1)C(=O)O; 1Nal = N[C@@H](Cc1cccc2ccccc12)C(=O)O; 2Nal = N[C@@H](Cc1ccc2ccccc2c1)C(=O)O
B1: R4-20 (peptide)
peptide: Ac-RRRREDDD[2Nal]IDWYDSDDD-NH2
SMILES: CC[C@H](C)[C@H](NC(=O)[C@H](Cc1ccc2ccccc2c1)NC(=O)[C@H](CC(=O)O)NC(=O)[C@H](CC(=O)O)NC(=O)[C@H](CC(=O)O)NC(=O)[C@H](CCC(=O)O)NC(=O)[C@H](CCCNC(=N)N)NC(=O)[C@H](CCCNC(=N)N)NC(=O)[C@H](CCCNC(=N)N)NC(=O)[C@H](CCCNC(=N)N)NC(C)=O)C(=O)N[C@@H](CC(=O)O)C(=O)N[C@@H](Cc1c[nH]c2ccccc12)C(=O)N[C@@H](Cc1ccc(O)cc1)C(=O)N[C@@H](CC(=O)O)C(=O)N[C@@H](CO)C(=O)N[C@@H](CC(=O)O)C(=O)N[C@@H](CC(=O)O)C(=O)N[C@@H](CC(=O)O)C(N)=O
B2: R4-21 (peptide)
peptide: Ac-RRRREDDD[2Nal]IDWGPTSDDD-NH2
SMILES: CC[C@H](C)[C@H](NC(=O)[C@H](Cc1ccc2ccccc2c1)NC(=O)[C@H](CC(=O)O)NC(=O)[C@H](CC(=O)O)NC(=O)[C@H](CC(=O)O)NC(=O)[C@H](CCC(=O)O)NC(=O)[C@H](CCCNC(=N)N)NC(=O)[C@H](CCCNC(=N)N)NC(=O)[C@H](CCCNC(=N)N)NC(=O)[C@H](CCCNC(=N)N)NC(C)=O)C(=O)N[C@@H](CC(=O)O)C(=O)N[C@@H](Cc1c[nH]c2ccccc12)C(=O)NCC(=O)N1CCC[C@H]1C(=O)N[C@H](C(=O)N[C@@H](CO)C(=O)N[C@@H](CC(=O)O)C(=O)N[C@@H](CC(=O)O)C(=O)N[C@@H](CC(=O)O)C(N)=O)[C@@H](C)O
B3: RRRR(2Nala)… (peptide)
peptide: Ac-RRRR[2Nal]EDSDDYDDIDDDW-NH2
SMILES: CC[C@H](C)[C@H](NC(=O)[C@H](CC(=O)O)NC(=O)[C@H](CC(=O)O)NC(=O)[C@H](Cc1ccc(O)cc1)NC(=O)[C@H](CC(=O)O)NC(=O)[C@H](CC(=O)O)NC(=O)[C@H](CO)NC(=O)[C@H](CC(=O)O)NC(=O)[C@H](CCC(=O)O)NC(=O)[C@H](Cc1ccc2ccccc2c1)NC(=O)[C@H](CCCNC(=N)N)NC(=O)[C@H](CCCNC(=N)N)NC(=O)[C@H](CCCNC(=N)N)NC(=O)[C@H](CCCNC(=N)N)NC(C)=O)C(=O)N[C@@H](CC(=O)O)C(=O)N[C@@H](CC(=O)O)C(=O)N[C@@H](CC(=O)O)C(=O)N[C@@H](Cc1c[nH]c2ccccc12)C(N)=O
B4: EDDS(1Nala)… (peptide)
peptide: Ac-EDDS[1Nal]VWWGGADTD-NH2
SMILES: CC(=O)N[C@@H](CCC(=O)O)C(=O)N[C@@H](CC(=O)O)C(=O)N[C@@H](CC(=O)O)C(=O)N[C@@H](CO)C(=O)N[C@@H](Cc1cccc2ccccc12)C(=O)N[C@H](C(=O)N[C@@H](Cc1c[nH]c2ccccc12)C(=O)N[C@@H](Cc1c[nH]c2ccccc12)C(=O)NCC(=O)NCC(=O)N[C@@H](C)C(=O)N[C@@H](CC(=O)O)C(=O)N[C@H](C(=O)N[C@@H](CC(=O)O)C(N)=O)[C@@H](C)O)C(C)C
B5: EDDS(Omtyr)… (peptide)
peptide: Ac-EDDS[Tyr(Me)]VWWGGADTD-NH2
SMILES: COc1ccc(C[C@H](NC(=O)[C@H](CO)NC(=O)[C@H](CC(=O)O)NC(=O)[C@H](CC(=O)O)NC(=O)[C@H](CCC(=O)O)NC(C)=O)C(=O)N[C@H](C(=O)N[C@@H](Cc2c[nH]c3ccccc23)C(=O)N[C@@H](Cc2c[nH]c3ccccc23)C(=O)NCC(=O)NCC(=O)N[C@@H](C)C(=O)N[C@@H](CC(=O)O)C(=O)N[C@H](C(=O)N[C@@H](CC(=O)O)C(N)=O)[C@@H](C)O)C(C)C)cc1

Biological target: Sushi domains (SD1/2) protein of GABAB1a (GB1a)
Sequence (Q9Z0U4 29-158): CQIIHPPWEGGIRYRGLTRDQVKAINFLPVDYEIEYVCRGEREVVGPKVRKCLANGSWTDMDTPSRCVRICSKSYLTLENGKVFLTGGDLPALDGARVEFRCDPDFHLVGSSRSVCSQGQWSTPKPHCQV
Assay: FP competition vs TAMRA AJAP-1probe

| Binder | Ki [nM] |
| --- | --- |
| Ac-RRRRRRRREDDDWIDWGPTSDDD-NH2 [R8-17] | 58.1 |
| Ac-EDDDWIDWGPTSDDDRRRRRRRR-NH2 [17-R8] | 123 |
| Ac-RRRRRRRREAAAKEDDDWIDWYDSDDD-NH2 [R8-RL-16] | 314 |
| Ac-RRRRRRRRGGGGSEDDDWIDWYDSDDD-NH2 [R8-FL-16] | 280 |
| Ac-RRRRRRRREAAAKEDDDWIDWGPTSDDD-NH2 [R8-RL-17] | 105 |
| Ac-RRRRRRRRGGGGSEDDDWIDWGPTSDDD-NH2 [R8-FL-17] | 140 |
| Ac-EDDDWIDWGPTSDDDEAAAKRRRRRRRR-NH2 [17-RL-R8] | 139 |
| Ac-EDDDWIDWGPTSDDDGGGGSRRRRRRRR-NH2 [17-FL-R8] | 147 |
| Ac-EDDDWIDWYDSDDDEAAAKRRRRRRRR-NH2 [16-RL-R8] | 99.5 |
| Ac-EDDDWIDWYDSDDDGGGGSRRRRRRRR-NH2 [16-FL-R8] | 118 |
| Ac-RRRRRRREDDDWIDWYDSDDD-NH2 | 89.1 |
| Ac-RRRRRREDDDWIDWYDSDDD-NH2 | 70.9 |
| Ac-RRRRREDDDWIDWYDSDDD-NH2 | 39.5 |
| Ac-RRRREDDDWIDWYDSDDD-NH2 [4R-16] | 20.6 |
| Ac-RRREDDDWIDWYDSDDD-NH2 [R3-16] | 6.4 |
| Ac-RRRRRRREDDDWIDWGPTSDDD-NH2 | 65 |
| Ac-RRRRRREDDDWIDWGPTSDDD-NH2 | 43.4 |
| Ac-RRRRREDDDWIDWGPTSDDD-NH2 | 32 |
| Ac-RRRREDDDWIDWGPTSDDD-NH2 [4R-17] | 15 |
| Ac-RRREDDDWIDWGPTSDDD-NH2 [R3-17] | 9 |
| B1 | 15 |
| B2 | 13 |
| B3 | 143000 |
| B4 | 69 |
| B5 | 101 |
| Ac-EDDS[Phe(4-F)]VWWGGADTD-NH2 [EDDS(Fphe)…] | 117 |
| Ac-EDDS[Phe(4-NH2)]VWWGGADTD-NH2 [EDDS(Aphe)…] | 184 |
| Ac-EDDS[Phe(4-tBu)]VWWGGADTD-NH2 [EDDS(Buphe)…] | 269 |

From US20260193293A1, “PEPTIDES CAPABLE OF INHIBITING PROTEIN-PROTEIN INTERACTIONS AT GABAB1A SUBUNIT AND USES THEREOF” (UNIVERSITY OF COPENHAGEN, priority 2022, published 2026)
